Patent US11058748B2, “Stable liquid formulations of glucagon-like peptide 1 or analogues thereof” (Rose Pharma LLC, priority 2019, dated 2021)

Experiments:
[1] = tested on: irritable bowel syndrome (IBS); details: clinical trials; cited from earlier work
[2] = High performance size-exclusion chromatography (HP-SEC): monomer, HMWS, LMWS; format: physicochemical; details: method test
Experimental: The ability of the HP-SEC method to detect changes in the monomer, HMWS and LMWS content was tested with stressed samples. […] Multiple freeze-thaw cycles had no influence on the SEC profile.

[3] = tested on: constipation predominant IBS (IBS-C); details: cited from earlier work
[4] = in solution; cited from earlier work

Substance: H-HVEGTFTSDVSSYLEGQAAKEFIAWLVKGRG-OH [ROSE-010]
- acute exacerbations of irritable bowel syndrome (IBS) [1]: reduce acute exacerbations of irritable bowel syndrome (IBS)
- overall signal intensity (HP-SEC) ([2]; mechanical stress): substantial loss
- SEC profile ([2]; multiple freeze-thaw cycles): no influence
- HMWS content ([2]; one week storage at 40° C.): slight increase
- colonic transit ([3]; at 48 h with 30 and 100 μg): accelerated colonic transit
- gastric emptying of solids [3]: delayed gastric emptying of solids
- noncovalent aggregates [4]: forms noncovalent aggregates in solution
